# Reference: the supplement of paper PMC9112550, “Optimization of the antimicrobial peptide Bac7 by deep mutational scanning” (BMC Biology, 2022)
# Test system: Escherichia coli TOP10
# Experiment: shrunken log2 fold change of peptide-encoding DNA abundance (4.5 h post-induction vs induction); higher = less antimicrobial activity (less host growth inhibition)
# Settings: time post-induction: 4.5 h; library: site-saturation at positions 5, 18, 19, 20
# 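Note: peptides expressed intracellularly from a pBAD plasmid library in pooled LB shake-flask culture, induced with 0.3% L-arabinose, DNA abundance read by NGS, three biological replicates, DESeq2 with apeglm shrinkage.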
row,Sequence,shrunken log2 fold change
1,RRIRVRPPRLPRPRPRPAGLPRP,0.192
2,RRIRFRPPRLPRPRPRPALHPRP,-0.0349
3,RRIRRRPPRLPRPRPRPHRNPRP,-0.317
4,RRIRVRPPRLPRPRPRPNLRPRP,0.0738
5,RRIRHRPPRLPRPRPRPGLFPRP,-0.0985
6,RRIRRRPPRLPRPRPRPIGYPRP,0.0143
7,RRIRIRPPRLPRPRPRPLFGPRP,-0.102
8,RRIRHRPPRLPRPRPRPEPSPRP,0.137
9,RRIRDRPPRLPRPRPRPSTSPRP,-0.115
10,RRIRCRPPRLPRPRPRPKWKPRP,0.329
11,RRIRERPPRLPRPRPRPWNSPRP,0.0019
12,RRIRDRPPRLPRPRPRPWSNPRP,-0.678
13,RRIRMRPPRLPRPRPRPQFTPRP,0.095
14,RRIRNRPPRLPRPRPRPKEYPRP,0.199
15,RRIRNRPPRLPRPRPRPYCVPRP,-0.172
16,RRIRMRPPRLPRPRPRPMVSPRP,0.0423
17,RRIRGRPPRLPRPRPRPNLEPRP,0.678
18,RRIRARPPRLPRPRPRPTQWPRP,0.457
19,RRIRMRPPRLPRPRPRPMWFPRP,0.233
20,RRIRARPPRLPRPRPRPETFPRP,-0.0526
21,RRIRPRPPRLPRPRPRPFYEPRP,-0.105
22,RRIRDRPPRLPRPRPRPPENPRP,0.856
23,RRIRVRPPRLPRPRPRPPVIPRP,-0.101
24,RRIRIRPPRLPRPRPRPRWKPRP,0.0818
25,RRIRERPPRLPRPRPRPGGAPRP,0.276
26,RRIRARPPRLPRPRPRPTLSPRP,0.801
27,RRIRCRPPRLPRPRPRPCDKPRP,-0.266
28,RRIRKRPPRLPRPRPRPQDKPRP,-0.182

row,Sequence,shrunken log2 fold change
1,RRIRDRPPRLPRPRPRPIKLPRP,-0.213
2,RRIRDRPPRLPRPRPRPPTAPRP,0.0444
3,RRIRVRPPRLPRPRPRPIAEPRP,0.127
4,RRIRVRPPRLPRPRPRPFSLPRP,-0.348
5,RRIRWRPPRLPRPRPRPFIDPRP,-0.046
6,RRIRKRPPRLPRPRPRPSYVPRP,-0.294
7,RRIRSRPPRLPRPRPRPQQTPRP,0.0905
8,RRIRYRPPRLPRPRPRPTHVPRP,-0.27
9,RRIRNRPPRLPRPRPRPVPGPRP,0.176
10,RRIRKRPPRLPRPRPRPCNPPRP,-0.00652
11,RRIRCRPPRLPRPRPRPPAAPRP,1.78
12,RRIRARPPRLPRPRPRPREVPRP,0.738
13,RRIRYRPPRLPRPRPRPFTNPRP,0.0209
14,RRIRWRPPRLPRPRPRPDSTPRP,-0.0382
15,RRIRIRPPRLPRPRPRPAYTPRP,-1.41
16,RRIRHRPPRLPRPRPRPHWLPRP,-0.123
17,RRIRCRPPRLPRPRPRPELEPRP,0.285
18,RRIRERPPRLPRPRPRPVKIPRP,-0.181
19,RRIRIRPPRLPRPRPRPVLVPRP,0.0259
20,RRIRQRPPRLPRPRPRPHSQPRP,0.0419
21,RRIRKRPPRLPRPRPRPCGYPRP,0.25
22,RRIRPRPPRLPRPRPRPNNVPRP,-0.22
23,RRIRSRPPRLPRPRPRPLGMPRP,-0.243
24,RRIRKRPPRLPRPRPRPWMIPRP,0.0508
25,RRIRARPPRLPRPRPRPHHCPRP,-0.859
26,RRIRNRPPRLPRPRPRPRHPPRP,0.136
27,RRIRSRPPRLPRPRPRPPLRPRP,0.249
